# Patent US20050215503, “HIF oligonucleotide decoy molecules” (published 2005)
# Target: HIF-1 (HIF-1alpha/HIF-1beta (ARNT) heterodimer) (Homo sapiens?, UniProt Q16665;P27540 Q16665:1-826,P27540:2-789)
# Assay: competition; TransAM
# Settings: protein: extract; tags: none (endogenous, nuclear extract)
# Procedure: To assess the relative affinities of oligonucleotides for a HIF-1α containing complex, the HIF-1 TransAM assay (Active Motif, Catalog # 47096) was utilized. The assay was performed according to manufacturer's instructions. Briefly, a double-stranded oligonucletide containing the hypoxia response element (HRE) was immobilized on a 96-well plate. A nuclear extract containing HIF-1α complexes was incubated and allowed to bind to the immobilized oligonucleotide. The unbound material was washed away and the bound HIF-1α detected using an antibody that specificially recognizes HIF-1α. The anti-HIF-1α antibody was detected by a secondary antibody labeled with horseradish peroxidase (HRP), and the amount of HRP in each well was measured using a calorimetric substrate reaction and read using a microplate spectrophotometer.
# The ability of candidate decoy molecules to compete for binding of HIF-1α to the HRE element-immobilized on the plate were measured and compared to reveal relative binding affinities. Candidate decoys were added in increasing molar ratios (relative to the amount of oligo immobilized on the plate) to compete for binding to the HIF-1α containing complexes. The amounts of decoys added to the assay included 0.625, 1.25, 2.5, 5, 10 and 20 fold molar excess. A well containing a competing decoy able to bind HIF-1α with high affinity would give a lower absorbance reading as compared to a decoy with low affinity for HIF-1α. All potential decoys were then compared and ranked in order to assess their relative binding affinities.
# The screen was conducted using different decoy concentrations. For each UV absorbance reading, normalization was done by calculating the ratio of absorbance readings of sample vs. wild type control. The bigger ratio represents less competition of binding with HIF-1α when compared with wild-type control. The smaller (smaller than 1.0 or close to 1.0) ratios represent better binding or better competition.
# Chain of HIF-1 (HIF-1alpha/HIF-1beta (ARNT) heterodimer) (Q16665 whole entry, chain 1 of 2): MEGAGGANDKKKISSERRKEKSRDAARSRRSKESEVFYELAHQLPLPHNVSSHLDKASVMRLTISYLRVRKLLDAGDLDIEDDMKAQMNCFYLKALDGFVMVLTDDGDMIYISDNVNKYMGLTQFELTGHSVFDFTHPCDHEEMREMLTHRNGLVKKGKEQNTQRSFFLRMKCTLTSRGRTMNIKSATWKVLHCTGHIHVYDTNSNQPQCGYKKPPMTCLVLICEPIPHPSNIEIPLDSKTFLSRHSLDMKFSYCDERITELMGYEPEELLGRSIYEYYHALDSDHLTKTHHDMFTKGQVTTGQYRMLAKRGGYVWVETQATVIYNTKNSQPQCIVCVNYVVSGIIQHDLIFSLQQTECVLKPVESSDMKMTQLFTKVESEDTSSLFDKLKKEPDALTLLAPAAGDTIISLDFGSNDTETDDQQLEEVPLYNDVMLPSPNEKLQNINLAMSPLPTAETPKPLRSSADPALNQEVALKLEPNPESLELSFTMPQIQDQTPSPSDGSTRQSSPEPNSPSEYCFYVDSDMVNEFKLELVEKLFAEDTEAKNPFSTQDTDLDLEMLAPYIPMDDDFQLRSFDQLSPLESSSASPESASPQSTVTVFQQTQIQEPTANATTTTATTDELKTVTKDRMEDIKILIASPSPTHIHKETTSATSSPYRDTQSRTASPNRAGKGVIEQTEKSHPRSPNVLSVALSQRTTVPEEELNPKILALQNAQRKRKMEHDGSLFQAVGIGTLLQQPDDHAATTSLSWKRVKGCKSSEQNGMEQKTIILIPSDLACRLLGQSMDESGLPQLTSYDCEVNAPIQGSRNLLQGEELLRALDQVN
# Chain of HIF-1 (HIF-1alpha/HIF-1beta (ARNT) heterodimer) (P27540 2-789, chain 2 of 2): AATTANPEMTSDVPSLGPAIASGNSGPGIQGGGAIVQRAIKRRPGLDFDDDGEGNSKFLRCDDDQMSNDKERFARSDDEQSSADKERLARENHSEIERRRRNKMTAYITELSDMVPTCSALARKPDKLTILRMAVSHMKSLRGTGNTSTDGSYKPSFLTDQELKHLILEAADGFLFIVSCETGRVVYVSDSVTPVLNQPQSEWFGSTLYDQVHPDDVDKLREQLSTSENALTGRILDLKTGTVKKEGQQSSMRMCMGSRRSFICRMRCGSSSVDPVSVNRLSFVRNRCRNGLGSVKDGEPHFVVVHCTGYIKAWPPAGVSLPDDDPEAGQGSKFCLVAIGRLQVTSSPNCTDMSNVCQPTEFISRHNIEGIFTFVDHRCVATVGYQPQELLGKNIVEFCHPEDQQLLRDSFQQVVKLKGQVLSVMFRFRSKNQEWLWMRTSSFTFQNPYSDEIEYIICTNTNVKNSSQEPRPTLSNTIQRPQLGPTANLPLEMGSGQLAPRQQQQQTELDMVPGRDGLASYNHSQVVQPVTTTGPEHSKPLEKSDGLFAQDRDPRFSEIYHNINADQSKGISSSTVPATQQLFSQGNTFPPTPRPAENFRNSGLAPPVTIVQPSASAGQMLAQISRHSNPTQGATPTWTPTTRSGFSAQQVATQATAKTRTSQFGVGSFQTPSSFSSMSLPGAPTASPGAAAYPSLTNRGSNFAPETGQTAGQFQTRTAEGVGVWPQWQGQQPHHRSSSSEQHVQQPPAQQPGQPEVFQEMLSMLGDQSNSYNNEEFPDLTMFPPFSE
row,Binder,binding signal [ratio]
1,decoy 991 (dsDNA) DNA 1: CCAGCGTACGTGCATCAGG DNA 2: CCTGATGCACGTACGCTGG,1.02
2,decoy 927 (dsDNA) DNA 1: CCAGCGTTCGTGCCTCAGG DNA 2: CCTGAGGCACGAACGCTGG,3.16
3,decoy 805/806 (dsDNA) DNA 1: CCCCCTCGGACGTGACTCGGACCAC DNA 2: GTGGTCCGAGTCACGTCCGAGGGGG,1.13
4,decoy 871/872 (dsDNA) DNA 1: ACCGTACGTGCTGCCA DNA 2: TGGCAGCACGTACGGT,2.21
5,decoy 949 (dsDNA) DNA 1: CCAGCGTACGGGCCTCAGG DNA 2: CCTGAGGCCCGTACGCTGG,2.73
6,decoy 975 (dsDNA) DNA 1: CCACCGTACGTGCCTCAGG DNA 2: CCTGAGGCACGTACGGTGG,1.63
7,decoy 967 (dsDNA) DNA 1: CCAGCATACGTGCCTCAGG DNA 2: CCTGAGGCACGTATGCTGG,1.53
8,decoy 969 (dsDNA) DNA 1: CCAGGGTACGTGCCTCAGG DNA 2: CCTGAGGCACGTACCCTGG,1.67
9,decoy 877/878 (dsDNA) DNA 1: ACCGTACGTGCTGCTA DNA 2: TAGCAGCACGTACGGT,2.23
10,decoy 833/834 (dsDNA) DNA 1: TCCAATGCGTGCAGTACT DNA 2: AGTACTGCACGCATTGGA,3.05
11,decoy 951 (dsDNA) DNA 1: CCAGCGTACGTCCCTCAGG DNA 2: CCTGAGGGACGTACGCTGG,2.91
12,decoy 831/832 (dsDNA) DNA 1: TCCAATACGTGCAGTACT DNA 2: AGTACTGCACGTATTGGA,3.36
13,decoy 993 (dsDNA) DNA 1: CCAGCGTACGTGCCACAGG DNA 2: CCTGTGGCACGTACGCTGG,0.93
14,decoy 941 (dsDNA) DNA 1: CCAGCGTACCTGCCTCAGG DNA 2: CCTGAGGCAGGTACGCTGG,3.45
15,decoy 859/860 (dsDNA) DNA 1: ACCGTACGTGCTGATC DNA 2: GATCAGCACGTACGGT,2.37
16,decoy 947 (dsDNA) DNA 1: CCAGCGTACGCGCCTCAGG DNA 2: CCTGAGGCGCGTACGCTGG,2.94
17,decoy 807/808 (dsDNA) DNA 1: TCTGTACGTGACCACACTCACCTC DNA 2: GAGGTGAGTGTGGTCACGTACAGA,2.76
18,decoy 973 (dsDNA) DNA 1: CCAGAGTACGTGCCTCAGG DNA 2: CCTGAGGCACGTACTCTGG,1.34
19,decoy 931 (dsDNA) DNA 1: CCAGCGTCCGTGCCTCAGG DNA 2: CCTGAGGCACGGACGCTGG,3.44
20,decoy 905 (dsDNA) DNA 1: GATCGCCCTACGTGCTGTCTCAGATC DNA 2: GATCTGAGACAGCACGTAGGGCGATC,1.54
21,decoy 835/836 (dsDNA) DNA 1: GGCCAGACGTGCCACCGG DNA 2: CCGGTGGCACGTCTGGCC,2.91
22,decoy 943 (dsDNA) DNA 1: CCAGCGTACTTGCCTCAGG DNA 2: CCTGAGGCAAGTACGCTGG,2.83
23,decoy 813/814 (dsDNA) DNA 1: GCCCTACGTGCTGTCTCACACAGC DNA 2: GCTGTGTGAGACAGCACGTAGGGC,4.6
24,decoy 855/856 (dsDNA) DNA 1: GTGTGTACGTGCAGGAAA DNA 2: TTTCCTGCACGTACACAC,1.07
25,decoy 867/868 (dsDNA) DNA 1: TCCGTACGTGCTGCAC DNA 2: GTGCAGCACGTACGGA,2.63
26,decoy 953 (dsDNA) DNA 1: CCAGCGTACGTACCTCAGG DNA 2: CCTGAGGTACGTACGCTGG,2.67

row,Binder,binding signal [ratio]
1,decoy 801/802 (dsDNA) DNA 1: GCCCTACGTGCTGTCTCA DNA 2: TGAGACAGCACGTAGGGC,4
2,decoy 995 (dsDNA) DNA 1: CCAGCGTACGTGCCGCAGG DNA 2: CCTGCGGCACGTACGCTGG,0.92
3,decoy 989 (dsDNA) DNA 1: CCAGCGTACGTGCTTCAGG DNA 2: CCTGAAGCACGTACGCTGG,1.21
4,decoy 821/822 (dsDNA) DNA 1: CGCGAGCGTACGTGCCTCAGG DNA 2: CCTGAGGCACGTACGCTCGCG,1.33
5,decoy 929 (dsDNA) DNA 1: CCAGCGTGCGTGCCTCAGG DNA 2: CCTGAGGCACGCACGCTGG,2.35
6,decoy 963 (dsDNA) DNA 1: CCAGCCTACGTGCCTCAGG DNA 2: CCTGAGGCACGTAGGCTGG,1.17
7,decoy 979 (dsDNA) DNA 1: CCATCGTACGTGCCTCAGG DNA 2: CCTGAGGCACGTACGATGG,1.41
8,decoy 977 (dsDNA) DNA 1: CCAACGTACGTGCCTCAGG DNA 2: CCTGAGGCACGTACGTTGG,1.43
9,decoy 911 (dsDNA) DNA 1: CACAGCGTACGTGCTGTCTCA DNA 2: TGAGACAGCACGTACGCTGTG,1.16
10,decoy 965 (dsDNA) DNA 1: CCAGCTTACGTGCCTCAGG DNA 2: CCTGAGGCACGTAAGCTGG,1.61
11,decoy 987 (dsDNA) DNA 1: CCAGCGTACGTGCGTCAGG DNA 2: CCTGACGCACGTACGCTGG,1.16
12,decoy 829/830 (dsDNA) DNA 1: AGGAGACGTGCTGCCT DNA 2: AGGCAGCACGTCTCCT,5.12
13,decoy 899 (dsDNA) DNA 1: CGAGCGTACGTGCCTCAGG DNA 2: CCTGAGGCACGTACGCTCG,1.34
14,decoy 955 (dsDNA) DNA 1: CCAGCGTACGTTCCTCAGG DNA 2: CCTGAGGAACGTACGCTGG,2.4
15,decoy 837/838 (dsDNA) DNA 1: AGGCAACGTGCAGCCG DNA 2: CGGCTGCACGTTGCCT,3.74
16,decoy 957 (dsDNA) DNA 1: CCAGCGCACGTGCCTCAGG DNA 2: CCTGAGGCACGTGCGCTGG,1.41
17,decoy 971 (dsDNA) DNA 1: CCAGTGTACGTGCCTCAGG DNA 2: CCTGAGGCACGTACACTGG,1.05
18,decoy 873/874 (dsDNA) DNA 1: TCCGTACGTGCTGCGT DNA 2: ACGCAGCACGTACGGA,2.33
19,decoy 939 (dsDNA) DNA 1: CCAGCGTACATGCCTCAGG DNA 2: CCTGAGGCATGTACGCTGG,2.93
20,decoy 959 (dsDNA) DNA 1: CCAGCGAACGTGCCTCAGG DNA 2: CCTGAGGCACGTTCGCTGG,2.07
21,decoy 815/816 (dsDNA) DNA 1: GTGAGACGTGCGGCTTCCGTTTG DNA 2: CAAACGGAAGCCGCACGTCTCAC,4.43
22,decoy 945 (dsDNA) DNA 1: CCAGCGTACGAGCCTCAGG DNA 2: CCTGAGGCTCGTACGCTGG,3.14
23,decoy 847/848 (dsDNA) DNA 1: GGAACAACGTGGAATTAG DNA 2: CTAATTCCACGTTGTTCC,3.02
24,decoy 961 (dsDNA) DNA 1: CCAGCGGACGTGCCTCAGG DNA 2: CCTGAGGCACGTCCGCTGG,1.65
25,decoy 893 (dsDNA) DNA 1: CACGAGCGTACGTGCCTCAGG DNA 2: CCTGAGGCACGTACGCTCGTG,0.94
